Positions count from the first letter of the chain named. Each block holds one binder with its values, some of them ahead of it.
How the values were obtained:
[1] = biological target: T1, IL1RL2 over-expressed on Expi293 cells (UniProt Q9HB29 20-575, limits assumed); assay: flow cytometry titration on over-expressing Expi293 cells
T1 construct: whole, on cells; Target of the flow cytometry assay; MFI ratio is over-expressing cells over parent cells
T1 sequence (looked up): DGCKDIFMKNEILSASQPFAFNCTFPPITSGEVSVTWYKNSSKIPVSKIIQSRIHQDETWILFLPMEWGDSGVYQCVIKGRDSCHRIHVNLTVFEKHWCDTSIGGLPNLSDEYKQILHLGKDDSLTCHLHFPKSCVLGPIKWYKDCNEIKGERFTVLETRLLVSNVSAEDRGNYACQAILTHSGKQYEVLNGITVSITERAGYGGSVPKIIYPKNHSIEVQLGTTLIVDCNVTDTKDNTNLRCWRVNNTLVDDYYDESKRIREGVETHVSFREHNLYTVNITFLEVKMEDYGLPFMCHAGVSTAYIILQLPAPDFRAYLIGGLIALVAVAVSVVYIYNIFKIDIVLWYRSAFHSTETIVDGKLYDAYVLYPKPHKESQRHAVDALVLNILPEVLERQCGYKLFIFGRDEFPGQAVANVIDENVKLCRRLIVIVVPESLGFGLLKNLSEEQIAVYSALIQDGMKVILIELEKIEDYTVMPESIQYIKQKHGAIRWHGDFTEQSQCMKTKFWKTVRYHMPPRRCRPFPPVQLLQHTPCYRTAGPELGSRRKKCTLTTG
Protocol: (§1) All incubations and washes were in buffer containing PBS+1% BSA. MFI Ratio is defined by the mean fluorescence intensity (MFI) of the cytokine over-expressing Expi293 cell over the Expi293 parent cell. […] EC50 was calculated in GraphPad Prism.

[2] = biological target: T1, IL1RL2 over-expressed on Expi293 cells; assay: flow cytometry, over-expressing Expi293 vs parent cells, 100 nM antibody;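 also: ratio is mean fluorescence intensity on over-expressing Expi293 cells divided by that measured on parental Expi293 cells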
Protocol: as §1

[3] = biological target: T2, IL1RL2 (UniProt Q9HB29 20-335, limits assumed); assay: SPR (Carterra LSA), antibody immobilised, 1:1 model
T2 construct: Soluble analyte of the SPR runs
T2 sequence (looked up): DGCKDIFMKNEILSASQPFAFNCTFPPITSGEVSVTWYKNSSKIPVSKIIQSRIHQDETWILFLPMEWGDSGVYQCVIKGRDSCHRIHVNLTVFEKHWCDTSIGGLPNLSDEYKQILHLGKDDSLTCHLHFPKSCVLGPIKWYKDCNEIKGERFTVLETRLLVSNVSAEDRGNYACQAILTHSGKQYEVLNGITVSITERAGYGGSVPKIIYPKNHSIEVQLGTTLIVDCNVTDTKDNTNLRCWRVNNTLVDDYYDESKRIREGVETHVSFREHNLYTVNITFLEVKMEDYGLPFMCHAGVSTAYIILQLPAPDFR
Protocol: SPR experiments were performed on a Carterra LSA SPR biosensor equipped with a HC30M chip at 25° C. in HBS-TE. Antibodies were diluted to 10 μg/mL and amine-coupled to the sensor chip by EDC/NHS activation, followed by ethanolamine HCl quenching. Increasing concentrations of analyte were flowed over the sensor chip in HBS-TE with 0.5 mg/mL BSA with 5-minute association and 15-minute dissociation. Following each injection cycle the surface was regenerated with 2× 30-second injections of IgG elution buffer (Thermo). Data were analyzed in Carterra's Kinetics Tool software with 1:1 binding model.

B2: IL1RL2-12 (VHH)
VHH: EVQLVESGGGLVQPGGSLRLSCAASGPMSSSAVMGWFRQAPGKEREFVAVVTRWSGARTVYADSVKGRFTISADNSKNTAYLQMNSLKPEDTAVYYCAVSQPLNYYTYYDPRRYDWGQGTLVTVSS
notes: VHH-Fc based on IgG2 Fc
EC50 [1]: 0.528 nM
100 nM FACS (MFI Ratio) [2]: 33.8
Kd [3]: 12.1 nM
koff [3]: 0.000485 s⁻¹
kon [3]: 40200 M⁻¹ s⁻¹

B3: IL1RL2-17 (VHH)
VHH: EVQLVESGGGLVQPGGSLRLSCAASGRTFSTYDMGWFRQAPGKERELVASITFGGDTNYADSVKGRFTISADNSKNTAYLQMNSLKPEDTAVYYCADVNGDWGQGTLVTVSS
notes: VHH-Fc based on IgG2 Fc
EC50 [1]: 11.2 nM
100 nM FACS (MFI Ratio) [2]: 15.6
Kd [3]: 1.45 nM
koff [3]: 0.00024 s⁻¹
kon [3]: 166000 M⁻¹ s⁻¹

B4: IL1RL2-15 (VHH)
VHH: B3 VHH with L47F, S50V, T52N, F53Y, G54R, D56S, N58T
notes: VHH-Fc based on IgG2 Fc
EC50 [1]: 0.622 nM
100 nM FACS (MFI Ratio) [2]: 14.4
Kd [3]: 4.13 nM
koff [3]: 0.000218 s⁻¹
kon [3]: 52700 M⁻¹ s⁻¹

B5: IL1RL2-5 (VHH)
VHH: B3 VHH with S30D, T31S, F53Y, G54L, D56R
notes: VHH-Fc based on IgG2 Fc
EC50 [1]: 13.4 nM
100 nM FACS (MFI Ratio) [2]: 13.9
Kd [3]: 2.72 nM
koff [3]: 0.000343 s⁻¹
kon [3]: 126000 M⁻¹ s⁻¹

B7: IL1RL2-35 (VHH)
VHH: EVQLVESGGGLVQPGGSLRLSCAASGRTFSTYDMGWFRQAPGKEREFVAAISWSGGSTNYADSVKGRFTISADNSKNTAYLQMNSLKPEDTAVYYCADVNGDWGQGTLVTVSS
notes: VHH-Fc based on IgG2 Fc
EC50 [1]: 0.508 nM
100 nM FACS (MFI Ratio) [2]: 15.6
Kd [3]: 4.74 nM
koff [3]: 0.000593 s⁻¹
kon [3]: 125000 M⁻¹ s⁻¹

B8: IL1RL2-20 (VHH)
VHH: B7 VHH with F29G, F47L, S54R, N59Y
notes: VHH-Fc based on IgG2 Fc
EC50 [1]: 9.03 nM
100 nM FACS (MFI Ratio) [2]: 11.6
Kd [3]: 3.28 nM
koff [3]: 0.000363 s⁻¹
kon [3]: 111000 M⁻¹ s⁻¹

More lines, now with the values ahead:

EC50 [1]: 1.1 nM
100 nM FACS (MFI Ratio) [2]: 192
B1: IL1RL2-302 (antibody, V domains shown)
VH: EVQLLESGGGLVQPGGSLRLSCAASGFPLSSYAMSWVRQAPGKGLEWVSLISGSGVSTYYADSVKGRFTISRDNSKNTLYLQMNSLRAEDTAVYYCARGWGAAEEWGQGTLVTVSS
VL: DIQMTQSPSSLSASVGDRVTITCRASQRISNYLHWYQQKPGKAPKLLIYAASRLHSGVPSRFSGSGSGTDFTLTISSLQPEDFATYYCQQSHTIPYTFGQGTKVEIK
notes: IgG2

EC50 [1]: 3.02 nM
100 nM FACS (MFI Ratio) [2]: 15.4
Kd [3]: 3.59 nM
koff [3]: 0.000126 s⁻¹
kon [3]: 35000 M⁻¹ s⁻¹
B6: IL1RL2-22 (VHH)
VHH: EVQLVESGGGLVQPGGSLRLSCAASGRTFGSYAMGWFRQAPGKEREFVAAINWSGARTYYADSVKGRFTISADNSKNTAYLQMNSLKPEDTAVYYCAVSQPLNYYTYYDARRYDWGQGTLVTVSS
notes: VHH-Fc based on IgG2 Fc

EC50 [1]: 64.2 nM
100 nM FACS (MFI Ratio) [2]: 14
Kd [3]: 1.32 nM
koff [3]: 0.000143 s⁻¹
kon [3]: 108000 M⁻¹ s⁻¹
B9: IL1RL2-27 (VHH)
VHH: B7 VHH with R27G, T28R, A50S, S52V, S54I, S57R, N59Y
notes: VHH-Fc based on IgG2 Fc
